This assay concerns the target PB2 polymerase subunit fused to Gluc1, of recombinant WSN virus (WSN-PB2-Gluc1) (UniProt P03427). The conditions noted are these: parent: est. 100; read off a plot.

These results are taken from paper PMC5037575.

Regarding “Gluc2-DDX19B wild type (from UniProt Q9UMR2) R428Q”, the percent of parent was found to be 68%.
